# Experimental data from patent US20260132197A1 (NANJING LEGEND BIOTECH, published 2026).
# What was measured:
# Human CD47-C33G [1] = target: T1, Human CD47-C33G (human, UniProt Q08722 19-135); assay: SPR, IgG captured, CD47 in flow; exp 3;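 further: other target is a CD47 mutein carrying C33G, used to obtain true monovalent affinity, with kon and koff fitted from SPR binding curves and KD derived from both rates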
# T1 construct: also called CD47 mutein with C33G mutation
# [2] = target: T2, wild type human CD47 (Acro Biosystems, cat. no. CD7-H5227) (human, UniProt Q08722 19-139); assay: SPR, IgG captured, CD47 in flow; exp 3;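 further: other target is a CD47 mutein carrying C33G, used to obtain true monovalent affinity, with kon and koff fitted from SPR binding curves and KD derived from both rates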
# T2 construct: Bought protein used as SPR analyte; also called Human CD47 wt; wild-type CD47
# [3] = target: T3, human CD47 on cells (SHP-77 tumor cells, human red blood cells, CCRF-CEM cells, human CD47 CHO-K1 stable cell … (human, UniProt Q08722 19-323)); assay: flow cytometry on SHP-77 cells
# T3 construct: whole, on cells; also called RBC
# [4] = target: T3, human CD47 on cells (SHP-77 tumor …); assay: flow cytometry on human RBCs;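 further: antibody binding measured by flow cytometry as geometric mean fluorescence intensity over a range of antibody concentrations, with EC50 and maximum taken from a sigmoidal dose-response fit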
# [5] = target: T3, human CD47 on cells (SHP-77 tumor …); assay: cell-based or functional assay
# Human CD47-C33G [6] = target: T1, Human CD47-C33G; assay: SPR, IgG captured, CD47 in flow; exp 4;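 further: rates fitted from SPR association and dissociation curves, KD estimated from them, the other target is a CD47 C33G mutein, used to obtain true monovalent affinity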
# [7] = target: T2, wild type human CD47 (Acro Biosystems, …); assay: SPR, IgG captured, CD47 in flow; exp 4;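 further: rates fitted from SPR association and dissociation curves, KD estimated from them, the other target is a CD47 C33G mutein, used to obtain true monovalent affinity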
Binder,Kd (Human CD47-C33G [1]) [nM],koff (Human CD47-C33G [1]) [s⁻¹],kon (Human CD47-C33G [1]) [M⁻¹ s⁻¹],Kd [2] [nM],koff [2] [s⁻¹],kon [2] [M⁻¹ s⁻¹],EC50 [3] [nM],Fitted Maximal MFI [3] [MFI],EC50 [4] [nM],Fitted Maximal MFI [4] [MFI],CCRF-CEM phagocytosis EC50 [5] [nM],"CCRF-CEM phagocytosis, Phagocytosis (%) [5] [%]",Kd (Human CD47-C33G [6]) [nM],koff (Human CD47-C33G [6]) [s⁻¹],kon (Human CD47-C33G [6]) [M⁻¹ s⁻¹],Kd [7] [nM],koff [7] [s⁻¹],kon [7] [M⁻¹ s⁻¹]
"108VH10.Mg / 108VL10.Me (antibody, V domains shown, 4D5-framework series; constant regions not restated for this series; also called VH10.Mg VL10.Me) VH: EVQLVESGGGLVQPGGSLRLSCAASGFTFSHHWIHWVRQAPGKGLEWVAMIDASDSETRLSQKFKDRFTISADTSKNTAYLQMNSLRAEDTAVYYCSRLGRYYFDYWGQGTLVTVSS VL: DIQMTQSPSSLSASVGDRVTITCRASQSISSYLNWYQQKPGKAPKLLIYGASSRYSGVPSRFSGSRSGTDFTLTISSLQPEDFATYYCGESYGHLYTFGQGTKVEIK",31,0.0072,230000,4.8,0.0032,680000,,,,,,,,,,,,
"108VH10.Mh / 108VL10.Me (antibody, V domains shown, 4D5-framework series; constant regions not restated for this series; also called VH10.Mh VL10.Me) VH: EVQLVESGGGLVQPGGSLRLSCAASGFTFSHHWIHWVRQAPGKGLEWVAMIDASDSETRLVQKFKDRFTISADTSKNTAYLQMNSLRAEDTAVYYCSRLGRYYFDYWGQGTLVTVSS VL: DIQMTQSPSSLSASVGDRVTITCRASQSISSYLNWYQQKPGKAPKLLIYGASSRYSGVPSRFSGSRSGTDFTLTISSLQPEDFATYYCGESYGHLYTFGQGTKVEIK",160,0.013,79000,17,0.0066,380000,,,,,,,,,,,,
"108VH10.Mo / 108VL10.Me (antibody, V domains shown, 4D5-framework series; also called VH10.Mo VL10.Me) VH: EVQLVESGGGLVQPGGSLRLSCAASGFTFSHHWIHWVRQAPGKGLEWVAMIDASDSETRLSDSFKGRFTISADTSKNTAYLQMNSLRAEDTAVYYCSRLGRYYFDYWGQGTLVTVSS VL: DIQMTQSPSSLSASVGDRVTITCRASQSISSYLNWYQQKPGKAPKLLIYGASSRYSGVPSRFSGSRSGTDFTLTISSLQPEDFATYYCGESYGHLYTFGQGTKVEIK",,,,,,,7.9,34500,3.4,19200,0.18,56.4,45,0.0093,210000,5.8,0.0032,560000

# Further lines, results first:
Kd (Human CD47-C33G [1]) [nM],koff (Human CD47-C33G [1]) [s⁻¹],kon (Human CD47-C33G [1]) [M⁻¹ s⁻¹],Kd [2] [nM],koff [2] [s⁻¹],kon [2] [M⁻¹ s⁻¹],EC50 [3] [nM],Fitted Maximal MFI [3] [MFI],EC50 [4] [nM],Fitted Maximal MFI [4] [MFI],CCRF-CEM phagocytosis EC50 [5] [nM],"CCRF-CEM phagocytosis, Phagocytosis (%) [5] [%]",Kd (Human CD47-C33G [6]) [nM],koff (Human CD47-C33G [6]) [s⁻¹],kon (Human CD47-C33G [6]) [M⁻¹ s⁻¹],Kd [7] [nM],koff [7] [s⁻¹],kon [7] [M⁻¹ s⁻¹],Binder
38,0.0087,230000,5.2,0.0034,640000,,,,,,,,,,,,,"108VH10.Mi / 108VL10.Me (antibody, V domains shown, 4D5-framework series; constant regions not restated for this series; also called VH10.Mi VL10.Me) VH: EVQLVESGGGLVQPGGSLRLSCAASGFTFSHHWIHWVRQAPGKGLEWVAMIDASDSETRLSDKFKDRFTISADTSKNTAYLQMNSLRAEDTAVYYCSRLGRYYFDYWGQGTLVTVSS VL: DIQMTQSPSSLSASVGDRVTITCRASQSISSYLNWYQQKPGKAPKLLIYGASSRYSGVPSRFSGSRSGTDFTLTISSLQPEDFATYYCGESYGHLYTFGQGTKVEIK"
38,0.0078,210000,5.8,0.0035,610000,,,,,,,,,,,,,"108VH10.Mj / 108VL10.Me (antibody, V domains shown, 4D5-framework series; constant regions not restated for this series; also called VH10.Mj VL10.Me) VH: EVQLVESGGGLVQPGGSLRLSCAASGFTFSHHWIHWVRQAPGKGLEWVAMIDASDSETRLSQSFKDRFTISADTSKNTAYLQMNSLRAEDTAVYYCSRLGRYYFDYWGQGTLVTVSS VL: DIQMTQSPSSLSASVGDRVTITCRASQSISSYLNWYQQKPGKAPKLLIYGASSRYSGVPSRFSGSRSGTDFTLTISSLQPEDFATYYCGESYGHLYTFGQGTKVEIK"
36,0.0073,200000,5.6,0.0034,610000,,,,,,,,,,,,,"108VH10.Ml / 108VL10.Me (antibody, V domains shown, 4D5-framework series; constant regions not restated for this series; also called VH10.Ml VL10.Me) VH: EVQLVESGGGLVQPGGSLRLSCAASGFTFSHHWIHWVRQAPGKGLEWVAMIDASDSETRLSQKFKGRFTISADTSKNTAYLQMNSLRAEDTAVYYCSRLGRYYFDYWGQGTLVTVSS VL: DIQMTQSPSSLSASVGDRVTITCRASQSISSYLNWYQQKPGKAPKLLIYGASSRYSGVPSRFSGSRSGTDFTLTISSLQPEDFATYYCGESYGHLYTFGQGTKVEIK"
